From paper PMC7515708, “Enhancer RNAs predict enhancer–gene regulatory links and are critical for enhancer function in neuronal systems”

Tests used:
CBP bromodomain = CBP bromodomain (UniProt Q92793 1081-1197); assay: EMSA; same concentrations as HAT (up to 0.6 uM); no appreciable binding; 20 mM HEPES, 40 mM KCl, 1 mM EDTA, 0.2 mM DTT, 0.1 mg/ml BSA, 0.1% Tween-20, 20% glycerol, 0.1 mg/ml yeast tRNA; pH not stated; 1 h at 37 C; 1% agarose, 0.5x TBE; conditions: protein: commercial; tags: GST; label: fluorescein-12-UTP, internal
CBP bromodomain, sequence (Q92793 1081-1197): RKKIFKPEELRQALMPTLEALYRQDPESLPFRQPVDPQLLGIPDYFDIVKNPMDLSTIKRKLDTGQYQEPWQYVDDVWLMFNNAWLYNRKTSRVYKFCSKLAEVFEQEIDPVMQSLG

CBP HAT domain [1] = molecular target: T1, CBP HAT domain (UniProt Q92793 1319-1710); assay: EMSA; 20 nM RNA, 0.05-0.6 uM protein, yeast tRNA 0.1 mg/ml; almost complete binding at 0.6 uM; 20 mM HEPES, 40 mM KCl, 1 mM EDTA, 0.2 mM DTT, 0.1 mg/ml BSA, 0.1% Tween-20, 20% glycerol, 0.1 mg/ml yeast tRNA; pH not stated; 1 h at 37 C; 1% agarose, 0.5x TBE; conditions: protein: commercial; tags: GST; label: fluorescein-12-UTP, internal
T1 sequence (Q92793 1319-1710): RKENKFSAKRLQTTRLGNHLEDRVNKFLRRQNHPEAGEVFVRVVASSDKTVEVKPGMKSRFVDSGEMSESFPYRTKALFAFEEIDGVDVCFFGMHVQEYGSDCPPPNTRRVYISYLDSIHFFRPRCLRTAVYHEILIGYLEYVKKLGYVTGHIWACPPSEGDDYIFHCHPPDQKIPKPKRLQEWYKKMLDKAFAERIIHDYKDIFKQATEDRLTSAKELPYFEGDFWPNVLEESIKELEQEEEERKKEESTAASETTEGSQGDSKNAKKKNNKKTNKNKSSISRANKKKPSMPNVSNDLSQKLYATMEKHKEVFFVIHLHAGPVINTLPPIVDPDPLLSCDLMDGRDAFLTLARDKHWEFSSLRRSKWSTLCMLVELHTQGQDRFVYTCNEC

CBP HAT domain [2] = molecular target: T1, CBP HAT domain; assay: competition; against labeled eRNA1; competitor up to 5 uM; 20 mM HEPES, 40 mM KCl, 1 mM EDTA, 0.2 mM DTT, 0.1 mg/ml BSA, 0.1% Tween-20, 20% glycerol, 0.1 mg/ml yeast tRNA; pH not stated; 1 h at 37 C; 1% agarose, 0.5x TBE; conditions: protein: commercial; tags: GST
CBP HAT domain [3] = molecular target: T1, CBP HAT domain; assay: EMSA; 20 nM RNA, 0.05-0.6 uM protein, yeast tRNA 0.1 mg/ml; 20 mM HEPES, 40 mM KCl, 1 mM EDTA, 0.2 mM DTT, 0.1 mg/ml BSA, 0.1% Tween-20, 20% glycerol, 0.1 mg/ml yeast tRNA; pH not stated; 1 h at 37 C; 1% agarose, 0.5x TBE; conditions: protein: commercial; tags: GST; label: fluorescein-12-UTP, internal

B1: Fos eRNA1 (150 nt), labeled (ssRNA)
RNA: UUCGGCGGAACCCAAUACAUGGAGUCUGGAGGUUAAGAGACUGCCAAGAAGUCAAGCGGAAAGAGAAACAAGAACGGGAAAGGAAGCUUGGCUGUUCUGUGGGCUUUGGGGCUUUGACCUUGUCUGGAAGCCAUAAACUCGGCUCGAGGG
- binding result (CBP bromodomain): no binding
- binding result (CBP HAT domain [1]): binds

B2: Fos eRNA1 (150 nt), unlabeled competitor (ssRNA)
RNA: B1 RNA
- binding result (CBP HAT domain [2]): binds

B3: ctrl RNA (150), labeled (ssRNA)
RNA: GCUGCCAUCUGUCACCUAACAGGAGGAGGCUGAGAGUUACUUGUCUGGGAGACUUGCUGAGAGACAAGGACAGGCCCUGGAUCUCCUCAAUGUAGCCUGUCCGGGACUAUUCAGUUCUAUGAGGGACUUCUUAGAGAAACUAGGGUGCCC
- binding result (CBP HAT domain [3]): binds

B4: Fos eRNA3 (150), labeled (ssRNA)
RNA: CCUUACUAGCCGCUGAGCGUGCAGGCGUUGGGGACACUUUACACCGGGUUCAGAUUCCAGGGCCGCCACUCCAGGUGGAUAAUGAAGUACAGGCCAUAGUCUUUCUGUGCCCUAGACUGUCAUCUAUAACGUAAGCAUACUAGCAAGACC
- binding result (CBP HAT domain [3]): binds
